Data as given in PMC6193540.

Columns and labels:
[1] = target: p53, endogenous in 92-VU-040T HNSCC cells (human (endogenous in 92-VU-040T)) (UniProt P04637); experiment: co-IP
[2] = target: p53, endogenous in 93-VU-147T HNSCC cells (human (endogenous in 93-VU-147T)) (UniProt P04637); experiment: co-IP

B1: PBF, HA-tagged (natural protein)
chain: QEPPGAACSQNTNKTCEECLKNVSCLWCNTNKACLDYPVTSVLPPASLCKLSSARWGVCWVNFEALIITMSVVGGTLLLGIAICCCCCCRRKRSRKPDRSEEKAMREREERRIRQEERRAEMKTRHDEIRKKYGLFKEENPYARFENN
fold change of the binding to p53 in PTTG-depleted cells against Scr shRNA cells [1]: 4 fold
fold change of the binding to p53 in PTTG-depleted cells against Scr shRNA cells [2]: 3.6 fold
